Laboratory results: PMC8726015

Legend:
Test in all cases: purified protein
Settings in all cases: ATP; Mg2+
[1] = substrate: CC(C)(CO)[C@@H](O)C(=O)NCCC(=O)NCCS; assay type: biochemical, Homo sapiens
[2] = substrate: CC(C)(CO)[C@@H](O)C(=O)NCCCC(=O)O; assay type: biochemical, Homo sapiens
[3] = substrate: CC(C)(CO)[C@@H](O)C(=O)NCCC(=O)NCCS; assay type: biochemical, Drosophila melanogaster
[4] = substrate: CC(C)(CO)[C@@H](O)C(=O)NCCCC(=O)O; assay type: biochemical, Drosophila melanogaster

B1: human pantothenate kinase hPANK3 (Homo sapiens) (protein)
chain: PWFGMDIGGTLVKLSYFEPIDITAEEEQEEVESLKSIRKYLTSNVAYGSTGIRDVHLELKDLTLFGRRGNLHFIRFPTQDLPTFIQMGRDKNFSTLQTVLCATGGGAYKFEKDFRTIGNLHLHKLDELDCLVKGLLYIDSVSFNGQAECYYFANASEPERCQKMPFNLDDPYPLLVVNIGSGVSILAVHSKDNYKRVTGTSLGGGTFLGLCSLLTGCESFEEALEMASKGDSTQADKLVRDIYGGDYERFGLPGWAVASSFGNMIYKEKRESVSKEDLARATLVTITNNIGSVARMCAVNEKINRVVFVGNFLRVNTLSMKLLAYALDYWSKGQLKALFLEHEGYFGAVGALLGLPNFS
[1]
  K0.5: 8.05 ± 1.87 µM
  kcat: 0.41 ± 0.13 s⁻¹
  kcat/Km: 57600 ± 24600 M⁻¹ s⁻¹
[2]
  K0.5: 36.2 ± 2.1 µM
  kcat: 0.67 ± 0.02 s⁻¹
  kcat/Km: 19500 ± 1600 M⁻¹ s⁻¹

B2: fruit fly pantothenate kinase dPANK/FblD (Fumble D) (Drosophila melanogaster) (protein)
chain: MPWFGMDIGGTLTKLVYFEPKDITPDEQDREAGILRNIRRYLTKNSAYGKTGHRDTHLQMDNVEIRKRRGSLHFIRFQTTDMGNFLSLAKQKGMAELVTTVCATGGGAFKFEQDFRDQVNMKLAKFDELDTLIKGILFADLHNRTECYYYENARDILKSEKQQFNFSQPFPFILVNVGSGVSILAVYGPDNYKRISGTSLGGGTFLGLCCLLTGCTSFEEAIQLATKGDNRKVDKLVKDIYGGDYNRFGLPGDLVASSFGQMHLNDKRVSVSREDLANATLVTITNNIGSIARMCALNEKIDRVVFVGNFLRVNPISMKLLAYAMEFWSNGTMKGLFLEHEGYFGALGCLLQFNGELAAALNDGVEHSIHTESDSASEAAQTSSTADEPPEKAPTSKHSTR
[3]
  K0.5: 28.9 ± 13.0 µM
[4]
  K0.5: 82.2 ± 12.4 µM
  kcat: 2.72 ± 0.5 s⁻¹
  kcat/Km: 35600 ± 8400 M⁻¹ s⁻¹
